Measurements published in the supplement of paper PMC9233669.
Fewer inactive variants are shown than the library holds.

Experiments:
[1] = test system: biotinyl-Phe-oxazolone; assay: self-aminoacylation, catalytic enhancement (BFO) (fold over background); higher = more active; k-Seq, kA / k0A0; sequences stand for … in GGGAAUGGAUCCACAUCUACGAAUUC…UUCACUGCAGACUUGACGAAGCUG
Method in brief: (§1)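 Each biotinyl-aminoacyl-oxazolone, at 2–1250 μM, was incubated with mutagenized RNA pools (0.43 μM) carrying a 21-nt variable region. The 50 μL reactions contained HEPES/NaCl/KCl/MgCl2/CaCl2 buffer with 5% acetonitrile at pH 6.9–7.0 and ran for 90 minutes at room temperature. After streptavidin capture, RNA was measured by qPCR in triplicate and by Illumina sequencing, and catalytic enhancement was calculated as median kA over the uncatalyzed rate from a pseudo-first-order fit of per-sequence fraction reacted.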

[2] = test system: biotinyl-Ile-oxazolone; assay: self-aminoacylation, catalytic enhancement (BIO) (fold over background); higher = more active; k-Seq, kA / k0A0; sequences stand for … in GGGAAUGGAUCCACAUCUACGAAUUC…UUCACUGCAGACUUGACGAAGCUG
Method in brief: as §1

[3] = test system: biotinyl-Met-oxazolone; assay: self-aminoacylation, catalytic enhancement (BMO) (fold over background); higher = more active; k-Seq, kA / k0A0; sequences stand for … in GGGAAUGGAUCCACAUCUACGAAUUC…UUCACUGCAGACUUGACGAAGCUG
Method in brief: as §1

[4] = test system: biotinyl-Val-oxazolone; assay: self-aminoacylation, catalytic enhancement (BVO) (fold over background); higher = more active; k-Seq, kA / k0A0; sequences stand for … in GGGAAUGGAUCCACAUCUACGAAUUC…UUCACUGCAGACUUGACGAAGCUG
Method in brief: as §1

[5] = test system: biotinyl-Leu-oxazolone; assay: self-aminoacylation, catalytic enhancement (BLO) (fold over background); higher = more active; k-Seq, kA / k0A0; sequences stand for … in GGGAAUGGAUCCACAUCUACGAAUUC…UUCACUGCAGACUUGACGAAGCUG
Method in brief: as §1

[6] = test system: biotinyl-Trp-oxazolone; assay: self-aminoacylation, catalytic enhancement (BWO) (fold over background); higher = more active; k-Seq, kA / k0A0; sequences stand for … in GGGAAUGGAUCCACAUCUACGAAUUC…UUCACUGCAGACUUGACGAAGCUG
Method in brief: as §1

Sequence	self-aminoacylation [1]	self-aminoacylation [2]	self-aminoacylation [3]	self-aminoacylation [4]	self-aminoacylation [5]	self-aminoacylation [6]
AUUUACCUAGGUCAUGGGGUG [Fam2.2 aminoacylation ribozyme variant]	25.7	3.3	4.54	2.85	6.06	4.29
AUUAGCCUGGCCAUCGAGUGA [Fam2.1 aminoacylation ribozyme variant]	26.4	3.83	5.44	3.54	4.51	6.06
CCACACUUAACGCAAUCGGUC [Fam1B.1 aminoacylation ribozyme variant]	0.826	1.08	0.874	1.11	0.986	1.11
ACGUUUGCUAAUAGUCGUAAG [Fam3.1 aminoacylation ribozyme variant]	15.7	1.14	1.27	1.1	1.04	4.64
AAUACCCUGGUCAUCGCGUGA [Fam2.1 aminoacylation ribozyme variant]	118	7.23	16.9	8.98	15.7	16.1
GUUACCCUGGUCAUCGACUGA [Fam2.1 aminoacylation ribozyme variant]	0.937	1.2	1.4	1.21	1.45	1.01
CUAAUUCAAACAUUCGGUCUG [Fam1A.1 aminoacylation ribozyme variant]	0.983	1.05	1.03	0.979	1.02	1.02
AUUACCAUGUUCAUCGAGUGA [Fam2.1 aminoacylation ribozyme variant]	36.4	4.04	7.52	3.79	7.2	9.17
CAACUCUUCAAGCAAUCGGUC [Fam1B.1 aminoacylation ribozyme variant]	9.86	1.05	1.16	1.04	1.33	6.16
CUACUUCAACCAGUCGGUCUG [Fam1A.1 aminoacylation ribozyme variant]	0.542	0.712	0.662	0.833	0.788	0.564
AAGUUUGCUAAUGGUCGCUAG [Fam3.1 aminoacylation ribozyme variant]	0.714	0.829	0.963	0.975	0.908	0.845
AAUUUUGCUAAUAUUCGCAAG [Fam3.1 aminoacylation ribozyme variant]	1.5	1.92	1.55	1.5	1.57	2.15
CUACUCCAAACAAUGGGUCUG [Fam1A.1 aminoacylation ribozyme variant]	0.772	0.948	0.784	0.863	0.799	0.754
AAGUUUGUUAAUAGUCGAAAG [Fam3.1 aminoacylation ribozyme variant]	1.08	0.947	0.764	0.998	0.935	0.713
AAGUUUGCUAACAGUCGCAUG [Fam3.1 aminoacylation ribozyme variant]	0.642	0.963	0.804	0.899	0.89	1.11
AUAAUCCUGGUCAUCGAGUGA [Fam2.1 aminoacylation ribozyme variant]	9.11	3.72	7.24	3.48	6.95	7.96
AUUACCUAGGUCAUCGAGUGA [Fam2.1 aminoacylation ribozyme variant]	6.96	4.2	6.35	4.01	7.92	7.91
AUUCACCUAGGUCAUCGGUUU [Fam2.2 aminoacylation ribozyme variant]	1.09	1.19	1.19	1.41	1.28	0.984
AAGUUUUUUAAUAGUCGCAAG [Fam3.1 aminoacylation ribozyme variant]	3.28	2.01	1.58	1.62	1.71	2.02
CCUCACUUCAAGCAUUCGGUC [Fam1B.1 aminoacylation ribozyme variant]	1.36	1.3	1.14	1.43	1.16	1.37
AUUACCCUGGUCAUCCGGUGA [Fam2.1 aminoacylation ribozyme variant]	52.5	6.78	8.7	6.25	9.32	9.05
UUACUUCAAACAAUCGUUCUG [Fam1A.1 aminoacylation ribozyme variant]	2.05	0.996	1	0.975	0.983	1.05
AGUCACCUAGGUGAUCGGGUG [Fam2.2 aminoacylation ribozyme variant]	24.3	4.34	4.24	4.38	5.45	6.05
ACUACCCUGGCCAUCGAGUGA [Fam2.1 aminoacylation ribozyme variant]	27.3	3.53	4.33	3.77	6.69	7.18
AAGUUUUCUAAUGGUCGCAAG [Fam3.1 aminoacylation ribozyme variant]	2.21	1.67	1.21	1.38	1.6	1.68
AUUCACCUAGGUCAUGGGGAG [Fam2.2 aminoacylation ribozyme variant]	0.544	1.03	0.889	0.979	0.853	1.56

Sequence	self-aminoacylation [1]	self-aminoacylation [2]	self-aminoacylation [3]	self-aminoacylation [4]	self-aminoacylation [5]	self-aminoacylation [6]
AUUACCCUGGUCAUCUACUGA [Fam2.1 aminoacylation ribozyme variant]	0.799	0.925	0.663	0.856	0.676	0.358
CCACACUUCAAGCAUUCUGUC [Fam1B.1 aminoacylation ribozyme variant]	0.618	0.414	0.32	0.497	0.284	0.372
CUCCUUCAAACAAUCGGUAUG [Fam1A.1 aminoacylation ribozyme variant]	13.8	0.742	1.07	0.866	1.24	11.2
AUUUACCUAGGUCAUCGGGGG [Fam2.2 aminoacylation ribozyme variant]	3.14	2.81	3.84	2.46	4.77	2.43
CCACACUUGAAGCAAUCGCUC [Fam1B.1 aminoacylation ribozyme variant]	0.891	1.36	1.3	1.59	1.52	1.31
CUAAUUUAAACAAUCGGUCUG [Fam1A.1 aminoacylation ribozyme variant]	0.662	0.9	0.866	0.872	0.791	0.6
AUUACCCUUGUCAUCGGGUGA [Fam2.1 aminoacylation ribozyme variant]	45.3	4.14	8.35	4.39	9.03	9.41
AUUCACCUAGGUCAUUGGCUG [Fam2.2 aminoacylation ribozyme variant]	3.54	1.21	1.32	1.4	1.33	0.756
CUACUUUAAACAAUCGAUCUG [Fam1A.1 aminoacylation ribozyme variant]	0.815	0.768	0.675	0.741	0.683	0.852
CUACUUCAGACAAUCGGUCAG [Fam1A.1 aminoacylation ribozyme variant]	1.26	0.805	0.73	0.83	0.872	0.771
AUUUGCCUAGGUCAUCGGGUG [Fam2.2 aminoacylation ribozyme variant]	195	16	28	14.1	38.3	24.6
AUUCAGCUAGCUCAUCGGGUG [Fam2.2 aminoacylation ribozyme variant]	20.2	2.69	3.07	3.41	3.86	3.74
AAGUUUGCUUAUAAUCGCAAG [Fam3.1 aminoacylation ribozyme variant]	1.03	0.833	0.688	0.815	0.739	1.02
AAGUUUGAUAAUAGUCGAAAG [Fam3.1 aminoacylation ribozyme variant]	1.03	0.705	0.568	0.592	0.543	0.785
AUUACCAUGGCCAUCGAGUGA [Fam2.1 aminoacylation ribozyme variant]	2.77	1.83	2.67	2.27	3.1	3.98
CUACUUCAAUCAAUCGGGCUG [Fam1A.1 aminoacylation ribozyme variant]	8.36	1.41	1.31	1.24	1.38	7.13
AUUCACCUAGCCCAUCGGGUG [Fam2.2 aminoacylation ribozyme variant]	13.6	2	2.92	2.58	3.35	3.11
CCACACUUCAAUCACUCGGUC [Fam1B.1 aminoacylation ribozyme variant]	0.947	0.936	0.763	0.984	0.773	0.753
CCACACUUCGAGCAAUCGCUC [Fam1B.1 aminoacylation ribozyme variant]	5.11	1.98	2.13	2.62	1.71	2.71
GCACGCUUCAAGCAAUCGGUC [Fam1B.1 aminoacylation ribozyme variant]	120	2.55	2.62	2.74	3.62	60.1
CUACUUGAAAUAAUCGGUCUG [Fam1A.1 aminoacylation ribozyme variant]	0.723	0.785	0.801	0.784	0.68	0.619
CUACUUCAAAAGAUCGGUCUG [Fam1A.1 aminoacylation ribozyme variant]	1.08	0.973	0.728	0.724	0.859	0.938
AAGUUUGCUAUAAGUCGCAAG [Fam3.1 aminoacylation ribozyme variant]	1	1.12	0.995	0.9	0.726	0.892
AAGUUUGCUACUCGUCGCAAG [Fam3.1 aminoacylation ribozyme variant]	0.598	0.823	0.922	1.04	0.958	1.31
AAGUUUGCUAAUAGCCGCAGG [Fam3.1 aminoacylation ribozyme variant]	0.671	0.792	0.745	0.853	0.765	0.916
